Source: US20260209362A1 (VIB VZW, published 2026)
Values belong to the binder of their own block, whether it stands above or below them.

How the values were obtained:
[1] = molecular target: T1, biotinylated recombinant mouse IL-12Rβ2 (mouse, UniProt P97378 24-637, random biotinylated); assay: BLI, P.E., off-rate ranking
T1 construct: Recombinant protein produced in-house; also called mIL-12RB2; mouse IL-12RB2
T1 sequence: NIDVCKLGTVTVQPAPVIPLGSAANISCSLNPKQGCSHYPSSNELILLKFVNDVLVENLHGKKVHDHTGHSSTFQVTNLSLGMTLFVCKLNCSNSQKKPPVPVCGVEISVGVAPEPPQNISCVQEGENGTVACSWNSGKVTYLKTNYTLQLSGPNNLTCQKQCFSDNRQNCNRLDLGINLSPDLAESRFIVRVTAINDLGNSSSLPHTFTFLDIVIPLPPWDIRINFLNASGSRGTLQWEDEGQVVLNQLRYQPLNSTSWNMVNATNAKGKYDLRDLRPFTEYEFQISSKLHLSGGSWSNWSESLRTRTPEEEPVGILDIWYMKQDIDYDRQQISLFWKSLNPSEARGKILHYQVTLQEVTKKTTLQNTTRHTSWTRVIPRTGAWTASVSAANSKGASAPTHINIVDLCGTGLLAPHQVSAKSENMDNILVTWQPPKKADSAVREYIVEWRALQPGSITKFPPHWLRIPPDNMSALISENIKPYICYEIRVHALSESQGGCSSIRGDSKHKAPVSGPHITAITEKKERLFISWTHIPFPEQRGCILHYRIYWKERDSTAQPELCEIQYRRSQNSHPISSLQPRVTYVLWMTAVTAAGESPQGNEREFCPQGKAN

[2] = molecular target: T2, biotinylated recombinant human IL-12Rβ2 (human, UniProt Q99665 24-622, random biotinylated); assay: BLI, P.E., off-rate ranking
T2 construct: Recombinant protein produced in-house; also called hIL-12RB2; human IL-12RB2
T2 sequence: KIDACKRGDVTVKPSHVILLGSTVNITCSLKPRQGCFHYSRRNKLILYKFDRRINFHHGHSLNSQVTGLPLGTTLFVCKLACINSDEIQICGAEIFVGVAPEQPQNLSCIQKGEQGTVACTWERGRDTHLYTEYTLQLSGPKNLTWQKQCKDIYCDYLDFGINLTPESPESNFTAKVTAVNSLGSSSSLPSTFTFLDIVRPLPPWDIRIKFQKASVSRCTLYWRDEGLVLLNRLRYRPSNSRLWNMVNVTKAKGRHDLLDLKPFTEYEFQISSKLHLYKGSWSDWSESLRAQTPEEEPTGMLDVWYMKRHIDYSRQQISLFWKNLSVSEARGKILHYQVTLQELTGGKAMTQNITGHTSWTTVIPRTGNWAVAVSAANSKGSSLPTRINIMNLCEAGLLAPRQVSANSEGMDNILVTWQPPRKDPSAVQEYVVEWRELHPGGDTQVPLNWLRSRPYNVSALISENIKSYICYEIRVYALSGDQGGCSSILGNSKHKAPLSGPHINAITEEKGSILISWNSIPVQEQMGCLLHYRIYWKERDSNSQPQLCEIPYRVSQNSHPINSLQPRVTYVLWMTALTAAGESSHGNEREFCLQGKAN

[3] = molecular target: T1, biotinylated recombinant mouse IL-12Rβ2; assay: ELISA, P.E., biotinylated antigen
[4] = molecular target: T2, biotinylated recombinant human IL-12Rβ2; assay: ELISA, P.E., biotinylated antigen
[5] = molecular target: T3, biotinylated human recombinant IL-12Rβ2 (produced in-house) (human, UniProt Q99665 24-622, random biotinylated); assay: ELISA, periplasmic extract on biotinylated human IL-12Rβ2; signal over streptavidin control well
T3 construct: Soluble recombinant protein used for panning, ELISA and BLI; also called hIL-12RB2; hIL12RB2
T3 sequence: T2 sequence

[6] = molecular target: T3, biotinylated human recombinant IL-12Rβ2 …; assay: BLI (Octet Red), periplasmic extract on biotinylated human IL-12Rβ2 on streptavidin tips
[7] = molecular target: T4, biotinylated mouse recombinant IL-12Rβ2 (produced in-house) (mouse, UniProt P97378 24-637, random biotinylated); assay: BLI (Octet Red), periplasmic extract on biotinylated mouse IL-12Rβ2 on streptavidin tips, 1:1 model
T4 construct: Soluble recombinant protein used for panning, ELISA and BLI; also called mIL-12RB2; mIL12RB2
T4 sequence: T1 sequence

[8] = molecular target: T5, mouse IL-12Rβ2 expressed on cells (mouse, UniProt P97378 24-874); assay: flow cytometry, periplasmic extract VHH-HA on HEK293T cells transiently expressing mouse IL-12Rβ2
T5 construct: the cell lines are described by plasmid or cDNA number only; also called mIL-12RB2; HEK293T transiently transfected with mouse IL-12Rβ2
T5 sequence: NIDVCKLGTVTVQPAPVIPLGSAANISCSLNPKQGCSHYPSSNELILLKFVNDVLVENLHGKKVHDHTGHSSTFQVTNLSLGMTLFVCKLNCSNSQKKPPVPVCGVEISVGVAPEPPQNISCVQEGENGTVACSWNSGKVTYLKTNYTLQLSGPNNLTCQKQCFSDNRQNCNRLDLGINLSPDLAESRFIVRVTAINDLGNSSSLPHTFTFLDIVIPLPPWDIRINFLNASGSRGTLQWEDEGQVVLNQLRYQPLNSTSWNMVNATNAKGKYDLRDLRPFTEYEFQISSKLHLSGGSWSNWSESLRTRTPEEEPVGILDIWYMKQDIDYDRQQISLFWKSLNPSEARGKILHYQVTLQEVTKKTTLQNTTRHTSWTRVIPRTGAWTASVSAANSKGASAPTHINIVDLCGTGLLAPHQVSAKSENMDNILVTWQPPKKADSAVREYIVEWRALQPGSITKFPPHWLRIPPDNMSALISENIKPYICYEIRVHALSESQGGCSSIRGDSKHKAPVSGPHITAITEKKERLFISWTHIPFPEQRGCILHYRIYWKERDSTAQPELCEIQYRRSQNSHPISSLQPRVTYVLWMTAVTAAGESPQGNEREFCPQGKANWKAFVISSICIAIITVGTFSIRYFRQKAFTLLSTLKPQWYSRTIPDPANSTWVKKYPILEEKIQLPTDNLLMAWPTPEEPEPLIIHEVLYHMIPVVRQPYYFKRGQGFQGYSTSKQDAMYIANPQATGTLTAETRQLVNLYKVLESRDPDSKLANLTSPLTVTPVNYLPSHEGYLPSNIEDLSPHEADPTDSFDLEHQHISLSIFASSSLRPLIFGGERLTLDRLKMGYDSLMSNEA

[9] = molecular target: T4, biotinylated mouse recombinant IL-12Rβ2 …; assay: ELISA, periplasmic extract on biotinylated mouse IL-12Rβ2; signal over streptavidin control well
[10] = molecular target: T4, biotinylated mouse recombinant IL-12Rβ2 …; assay: BLI (Octet Red), periplasmic extract on biotinylated mouse IL-12Rβ2 on streptavidin tips
[11] = molecular target: T6, human IL-12Rβ2 expressed on cells (human, UniProt Q99665 24-862); assay: flow cytometry, periplasmic extract VHH-HA on HEK293T cells transiently expressing human IL-12Rβ2
T6 construct: the cell lines are described by plasmid or cDNA number only; also called hIL-12RB2; HEK293T transiently transfected with human IL-12Rβ2
T6 sequence: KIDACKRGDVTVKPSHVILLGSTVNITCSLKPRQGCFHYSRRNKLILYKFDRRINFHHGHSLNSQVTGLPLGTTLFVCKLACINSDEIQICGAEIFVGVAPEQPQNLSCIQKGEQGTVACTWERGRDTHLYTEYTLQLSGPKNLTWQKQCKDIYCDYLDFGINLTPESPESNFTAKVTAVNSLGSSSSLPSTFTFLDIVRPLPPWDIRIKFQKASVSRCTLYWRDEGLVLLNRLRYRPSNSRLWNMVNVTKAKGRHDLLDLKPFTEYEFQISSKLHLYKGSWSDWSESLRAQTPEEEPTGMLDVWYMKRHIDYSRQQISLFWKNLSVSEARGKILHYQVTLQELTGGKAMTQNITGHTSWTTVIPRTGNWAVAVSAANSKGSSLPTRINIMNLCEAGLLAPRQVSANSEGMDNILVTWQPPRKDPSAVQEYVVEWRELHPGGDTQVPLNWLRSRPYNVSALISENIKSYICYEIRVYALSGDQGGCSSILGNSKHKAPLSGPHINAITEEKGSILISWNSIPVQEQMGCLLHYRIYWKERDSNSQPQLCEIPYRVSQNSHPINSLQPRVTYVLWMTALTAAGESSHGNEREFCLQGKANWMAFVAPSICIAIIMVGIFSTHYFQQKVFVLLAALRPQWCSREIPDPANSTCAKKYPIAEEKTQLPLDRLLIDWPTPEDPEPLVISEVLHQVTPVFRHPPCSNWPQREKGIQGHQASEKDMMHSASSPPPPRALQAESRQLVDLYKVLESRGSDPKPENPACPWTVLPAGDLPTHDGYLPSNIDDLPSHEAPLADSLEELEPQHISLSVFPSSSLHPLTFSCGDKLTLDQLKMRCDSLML

[12] = molecular target: T3, biotinylated human recombinant IL-12Rβ2 …; assay: BLI (Octet Red), periplasmic extract on biotinylated human IL-12Rβ2 on streptavidin tips, 1:1 model

Response [1]: 1.35 | koff [1]: 0.00722 s⁻¹ | Response [2]: 0.693 | koff [2]: 0.00528 s⁻¹ | ELISA mIL-12RB2/control [3]: 14 | ELISA hIL-12RB2/control [4]: 8.46
B1: anti-IL-12Rβ2 VHH clone 3CRH83 (clone ID 20390) (VHH, not shown: small tags and cut ends)
VHH: QVQLQESGGGLVQAGGSLKLSCAASGNTFSINAMAWYRQAPGQELELVAAISDVGNTIYADSMKGRFTISRGNADNTVYLQMNSLKPEDTATYYCNAGTFYTSPGDSYYRGYDFWGQGTQVTVSS
notes: periplasmic extract

hIL12RB2/control (ELISA) [5]: 3.04 ratio | Response [6]: 1.4 | koff [7]: 0.00462 s⁻¹ | % cells bound [8]: 7.51% | dMFI [8]: 194 | mIL12RB2/control (ELISA) [9]: 38.8 ratio | Response [10]: 1.03 | % cells bound [11]: 37.6% | dMFI [11]: 684 | koff [12]: 0.00519 s⁻¹
B2: anti-IL-12Rβ2 VHH clone 3CAHM11 (clone ID 21050) (VHH)
VHH: QVQLQESGGGLVQAGGSLRLSCAASGRTFNNYAMAWFRQAPGKEREFIAAITRSDTTLYIDSVKGRFTISRDNAKNTVALQMNSLKPEDTAVYYCAAGMPYSYSDYPRDSKYDYWGRGTQVTVSS
notes: Tested as periplasmic extract; not shown: C-terminal HA tag

Response [1]: 1.03 | koff [1]: 0.00462 s⁻¹ | Response [2]: 1.4 | koff [2]: 0.00519 s⁻¹ | ELISA mIL-12RB2/control [3]: 38.8 | ELISA hIL-12RB2/control [4]: 3.04
B3: anti-IL-12Rβ2 VHH clone 3CAHM11 (clone ID 21050) (VHH, not shown: small tags and cut ends)
VHH: B2 VHH
notes: periplasmic extract

hIL12RB2/control (ELISA) [5]: 4.24 ratio | Response [6]: 1.45 | koff [7]: 0.00671 s⁻¹ | % cells bound [8]: 10.7% | dMFI [8]: 251 | mIL12RB2/control (ELISA) [9]: 5.24 ratio | Response [10]: 0.812 | % cells bound [11]: 24.4% | dMFI [11]: 458 | koff [12]: 0.00634 s⁻¹
B4: anti-IL-12Rβ2 VHH clone 3CRHM99 (clone ID 21062) (VHH)
VHH: QVQLQESGGGLVQPGGSLRLSCAASGISSSRLHVGWFRQSPGKEREFVAAISLSGGTQAYTDSVKGRFTISGDNVKNTAYLQMNSLRPEDTAVYYCAARERFIWTWSDLTYDYWGQGTQVTVSS
notes: as for B2

hIL12RB2/control (ELISA) [5]: 6.9 ratio | Response [6]: 1.45 | koff [7]: 0.00605 s⁻¹ | % cells bound [8]: 10.4% | dMFI [8]: 257 | mIL12RB2/control (ELISA) [9]: 26.3 ratio | Response [10]: 0.944 | % cells bound [11]: 19.5% | dMFI [11]: 297 | koff [12]: 0.00605 s⁻¹
B5: anti-IL-12Rβ2 VHH clone 3CRHM73 (clone ID 21060) (VHH)
VHH: QVQLQESGGGLVQAGGSLSLSCAASGSAFRLNFMGWYRQAPGKQRELVAAINSGGTEIYHDSVKGRFTISRDNADSTVWLQMNSLKPDDTAVYYCAADRGISWSKLAGGMDYWGKGTQVTVSS
notes: as for B2

hIL12RB2/control (ELISA) [5]: 3.11 ratio | Response [6]: 1.19 | koff [7]: 0.00483 s⁻¹ | % cells bound [8]: 18.6% | dMFI [8]: 312 | mIL12RB2/control (ELISA) [9]: 25.1 ratio | Response [10]: 0.957 | % cells bound [11]: 35.8% | dMFI [11]: 589 | koff [12]: 0.00532 s⁻¹
B6: anti-IL-12Rβ2 VHH clone 3CRHM14 (clone ID 21053) (VHH)
VHH: QVQLQESGGGLVQAGGSLRLSCAASGRTFSNYAMAWFRQAPGTEREFVAGLSGSGGDTEFYDDSVKGRFAISRDSAKNTVWLQMNSLKPEDTAVYYCAAATHVVVHYGLVRRRGTYDYWGQGTQVTVSS
notes: as for B2
